Each block holds one molecule with its values, some of them ahead of it.
Key:
[1] = molecular target: T1, EGFR-L858R (Homo sapiens, UniProt P00533, L858R); assay: MaMTH EGFR-interactor screen, lentiviral preys against EGFR-L858R bait (interaction score); assay type: cell-based; conditions: MaMTH interaction score of prey with EGFR-L858R bait
T1 construct: with the advantage of testing full-length integral membrane proteins; (GGGGS)2 linker-Cub (human ubiquitin aa 35-76)-GAL4(1-147)-mNFkB(364-550) (C); expressed in transfected cells
Method in brief: (§1)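 Interaction score is the luciferase fold-change versus averaged negative controls (Fabp5, Pex19, Pex7, GABBR2), with >1 called interacting. Luciferase was measured 24 h after triplicate bait transfection. This followed single-copy prey transduction (MOI ~0.3-0.4) of GAL4UAS-luciferase HEK293T cells and ≥48 h puromycin selection.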

[2] = molecular target: T2, EGFR-Wt (Homo sapiens, UniProt P00533); assay: MaMTH EGFR-interactor screen, lentiviral preys against EGFR-wildtype bait (interaction score); assay type: cell-based; conditions: MaMTH interaction score of prey with EGFR-Wt bait, mean
T2 construct: with the advantage of testing full-length integral membrane proteins; (GGGGS)2 linker-Cub (human ubiquitin aa 35-76)-GAL4(1-147)-mNFkB(364-550) (C); expressed in transfected cells
Method in brief: as §1

[3] = test system: EGFR-Wt; assay: as above; assay type: cell-based, human; conditions: ratio of EGFR-Wt mean to EGFR-L858R mean interaction score
Method in brief: as §1

EGFR-L858R mean [1]: 7.37
EGFR-Wt mean [2]: 4.83
B1: BAIAP2 (protein, UniProt Q9UQB8 1-552, looked up)
BAR/IMD domain-containing …: MSLSRSEEMHRLTENVYKTIMEQFNPSLRNFIAMGKNYEKALAGVTYAAKGYFDALVKMGELASESQGSKELGDVLFQMAEVHRQIQNQLEEMLKSFHNELLTQLEQKVELDSRYLSAALKKYQTEQRSKGDALDKCQAELKKLRKKSQGSKNPQKYSDKELQYIDAISNKQGELENYVSDGYKTALTEERRRFCFLVEKQCAVAKNSAAYHSKGKELLAQKLPLWQQACADPSKIPERAVQLMQQVASNGATLPSALSASKSNLVISDPIPGAKPLPVPPELAPFVGRMSAQESTPIMNGVTGPDGEDYSPWADRKAAQPKSLSPPQSQSKLSDSYSNTLPVRKSVTPKNSYATTENKTLPRSSSMAAGLERNGRMRVKAIFSHAAGDNSTLLSFKEGDLITLLVPEARDGWHYGESEKTKMRGWFPFSYTRVLDSDGSDRLHMSLQQGKSSSTGNLLDKDDLAIPPPDYGAASRAFPAQTASGFKQRPYSVAVPAFSQGLDDYGARSMSRNPFAHVQLKPTVTNDRCDLSAQGPEGREHGDGSARTLAGR
Wt/L858R [3]: 0.66

EGFR-L858R mean [1]: 21.65
EGFR-Wt mean [2]: 13.89
B2: Shc1 (protein, UniProt P98083 1-579, looked up)
SHC-transforming protein 1: MDLLPPKPKYNPLRNESLSSLEEGASGSTPPEELPSPSASSLGPILPPLPGDDSPTTLCSFFPRMSNLKLANPAGGRLGPKGEPGKAAEDGEGSAGAALRDSGLLPLLQDMNKLSGGGGRRTRVEGGQLGGEEWTRHGSFVNKPTRGWLHPNDKVMGPGVSYLVRYMGCVEVLQSMRALDFNTRTQVTREAISLVCEAVPGAKGATRRRKPCSRPLSSILGRSNLKFAGMPITLTVSTSSLNLMAADCKQIIANHHMQSISFASGGDPDTAEYVAYVAKDPVNQRACHILECPEGLAQDVISTIGQAFELRFKQYLRNPPKLVTPHDRMAGFDGSAWDEEEEEPPDHQYYNDFPGKEPPLGGVVDMRLREGAARPTLPSAQMSSHLGATLPIGQHAAGDHEVRKQMLPPPPCPGRELFDDPSYVNIQNLDKARQAGGGAGPPNPSLNGSAPRDLFDMKPFEDALRVPPPPQSMSMAEQLQGEPWFHGKLSRREAEALLQLNGDFLVRESTTTPGQYVLTGLQSGQPKHLLLVDPEGVVRTKDHRFESVSHLISYHMDNHLPIISAGSELCLQQPVDRKV
Wt/L858R [3]: 0.64

EGFR-L858R mean [1]: 5.13
EGFR-Wt mean [2]: 3.30
B3: MAPK8 (protein, UniProt P45983 1-427, looked up)
Mitogen-activated protein …: MSRSKRDNNFYSVEIGDSTFTVLKRYQNLKPIGSGAQGIVCAAYDAILERNVAIKKLSRPFQNQTHAKRAYRELVLMKCVNHKNIIGLLNVFTPQKSLEEFQDVYIVMELMDANLCQVIQMELDHERMSYLLYQMLCGIKHLHSAGIIHRDLKPSNIVVKSDCTLKILDFGLARTAGTSFMMTPYVVTRYYRAPEVILGMGYKENVDLWSVGCIMGEMVCHKILFPGRDYIDQWNKVIEQLGTPCPEFMKKLQPTVRTYVENRPKYAGYSFEKLFPDVLFPADSEHNKLKASQARDLLSKMLVIDASKRISVDEALQHPYINVWYDPSEAEAPPPKIPDKQLDEREHTIEEWKELIYKEVMDLEERTKNGVIRGQPSPLGAAVINGSQHPSSSSSVNDVSSMSTDPTLASDTDSSLEAAAGPLGCCR
Wt/L858R [3]: 0.64

EGFR-L858R mean [1]: 7.23
EGFR-Wt mean [2]: 4.75
B4: SH2D3A (protein, UniProt Q9BRG2 1-576, looked up)
SH2 domain-containing protein …: MQVPQDGEDLAGQPWYHGLLSRQKAEALLQQNGDFLVRASGSRGGNPVISCRWRGSALHFEVFRVALRPRPGRPTALFQLEDEQFPSIPALVHSYMTGRRPLSQATGAVVSRPVTWQGPLRRSFSEDTLMDGPARIEPLRARKWSNSQPADLAHMGRSREDPAGMEASTMPISALPRTSSDPVLLKAPAPLGTVADSLRASDGQLQAKAPTKPPRTPSFELPDASERPPTYCELVPRVPSVQGTSPSQSCPEPEAPWWEAEEDEEEENRCFTRPQAEISFCPHDAPSCLLGPQNRPLEPQVLHTLRGLFLEHHPGSTALHLLLVDCQATGLLGVTRDQRGNMGVSSGLELLTLPHGHHLRLELLERHQTLALAGALAVLGCSGPLEERAAALRGLVELALALRPGAAGDLPGLAAVMGALLMPQVSRLEHTWRQLRRSHTEAALAFEQELKPLMRALDEGAGPCDPGEVALPHVAPMVRLLEGEEVAGPLDESCERLLRTLHGARHMVRDAPKFRKVAAQRLRGFRPNPELREALTTGFVRRLLWGSRGAGAPRAERFEKFQRVLGVLSQRLEPDR
Wt/L858R [3]: 0.66
